Measured values published in paper PMC9503621.

What was measured:
[1] = molecular target: large (50S) ribosomal subunit from Staphylococcus aureus (S. aureus) (UniProt Q2FW16)
[2] = molecular target: large (50S) ribosomal subunit from Staphylococcus aureus (S. aureus) (UniProt Q2FW16); remark: listed apart in the source

Chain of UniProt Q2FW16 (Q2FW16 whole entry, looked up): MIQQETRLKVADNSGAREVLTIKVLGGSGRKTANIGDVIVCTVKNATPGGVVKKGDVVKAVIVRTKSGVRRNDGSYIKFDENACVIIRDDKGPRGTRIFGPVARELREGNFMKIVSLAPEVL

| Substance | Mg2+ concentration at which half of the vacant 70S ribosomes are dissociated into 50S + 30S (sucrose gradient profiles, 2X molar excess of RsfS, 3-5 mM Mg2+) [1] | anti-association activity at 4 mM Mg2+ (relative amount of dissociated 50S + 30S subunits, sucrose gradient profiles) [1] | efficiency of translation inhibition in the S. aureus cell-free system at 6 mM Mg2+ (370 mM K+) [2] | loss of anti-association activity at 4 mM Mg2+ (relative amount of dissociated 50S + 30S subunits, sucrose gradient profiles) (% of activity lost) [1] |
| --- | --- | --- | --- | --- |
| Ribosomal silencing factor S (RsfS) from Staphylococcus aureus, wild type (natural protein) | 5 mM Mg2+ | 100 % activity | 80% |  |
| RsfS E70A mutant from Staphylococcus aureus (natural protein) | 4.4 mM Mg2+ |  | 70% | 20 |
| RsfS Y98A mutant from Staphylococcus aureus (natural protein) | 3.4 mM Mg2+ |  | 35% | 80 |
